Article PMC9018835, “Regulated interaction of ID2 with the anaphase-promoting complex links progression through mitosis with reactivation of cell-type-specific transcription” (Nature Communications, 2022)
Positions count from the first letter of the chain named. Numbers in names are those of the source.

Columns and labels:
[1] = biological target: core APC (endogenous, HeLa) (human (endogenous in HeLa)); assay: cell-based or functional assay
[2] = biological target: T1, HA-CDH1, in vitro translated (UniProt Q9UM11 1-496); assay: pull-down; GST-ID2, with or without prior in vitro phosphorylation by CDK1-Cyclin B, incubated with APC immunopurified through FLAG-APC3 from HeLa cells and activated by in vitro translated HA-CDC20 or CDH1; western blot (Fig. 3h); details: both partners purified
T1 construct: CDH1/FZR1, generated by PCR and cloned into pcDNA3; also called in vitro translated CDH1; source: in vitro translated
T1 sequence (Q9UM11 whole entry): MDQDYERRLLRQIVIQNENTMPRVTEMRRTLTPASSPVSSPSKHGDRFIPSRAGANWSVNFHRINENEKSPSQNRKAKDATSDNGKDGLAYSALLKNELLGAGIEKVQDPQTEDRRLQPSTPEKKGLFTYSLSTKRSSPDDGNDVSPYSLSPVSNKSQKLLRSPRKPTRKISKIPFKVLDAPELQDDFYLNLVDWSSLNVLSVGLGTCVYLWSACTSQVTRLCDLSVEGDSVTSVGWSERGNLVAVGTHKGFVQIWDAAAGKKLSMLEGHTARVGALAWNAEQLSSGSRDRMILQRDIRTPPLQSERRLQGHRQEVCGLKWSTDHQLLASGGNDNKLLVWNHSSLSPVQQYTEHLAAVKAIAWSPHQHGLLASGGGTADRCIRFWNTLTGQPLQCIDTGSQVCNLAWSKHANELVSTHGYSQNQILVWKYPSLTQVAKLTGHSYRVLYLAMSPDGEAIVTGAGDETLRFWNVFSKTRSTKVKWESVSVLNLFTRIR

B1: FLAG-ID2-S5D (natural protein, UniProt Q02363 1-134, looked up)
chain: MKAFDPVRSVRKNSLSDHSLGISRSKTPVDDPMSLLYNMNDCYSKLKELVPSIPQNKKVSKMEILQHVIDYILDLQIALDSHPTIVSLHHQRPGQNQASRTPLTTLNTDISILSLQASEFPSELMSNDSKALCG
B1 was tested. Which “half-life of ID2-S5D in transiently transfected HeLa cells treated with cycloheximide, against ID2 wild type” value [1] did it give?
The value was about 5 fold.

B2: GST-ID2 wild type (natural protein, UniProt Q02363 1-134, looked up)
chain: B1 chain with D5S
notes: also called GST-ID2 WT; recombinant GST-ID2; source: E. coli BL21(DE3), purified GST fusion, immobilised on glutathione sepharose 4B
Does B2 bind [2]?
Result: binds

B3: phospho-S5-GST-ID2 (natural protein, UniProt Q02363 1-134, looked up)
chain: B1 chain with D5S
modifications: phosphoserine at 5 (in vitro phosphorylation by Cyclin B-CDK1)
notes: also called CDK1 phosphorylated GST-ID2; source: E. coli BL21(DE3), GST fusion; phosphorylated in vitro by CDK1-Cyclin B
Does B3 bind [2]?
Result: binds
